Reference: patent publication US20110312522A1, “METHODS OF DETECTION OF CANCER USING PEPTIDE PROFILES” (Sloan-Kettering Institute for Cancer Research, priority 2005, published 2011)
Ends that are not written are not given here.

Columns and labels:
[1] = Degradation of synthetic peptides added to fresh plasma, MALDI-TOF MS read-out; type: in vitro ADME, human
Description: In an effort to begin to understand the presence and roles of exoproteases, synthetic C3f was added to fresh plasma at a concentration close to that observed in serum. […] The resulting pattern was similar to the endogenous one observed in serum and also illustrated the disparate ion intensities for different rungs in the ladder.

[2] = Degradation of synthetic peptides in control serum and plasma (MALDI-TOF MS-based protease assay); type: in vitro ADME, human
From the text: A large part of the human serum ‘peptidome’, as detected by MALDI-TOF MS, is generated ex vivo (i.e., after blood collection) by protease degradation of blood proteins. Endoproteases produce ‘founder peptides’ which are then pared down by exoproteases into ladder-like clusters. Panels of proteolytic activity in the blood contribute important cancer type-specific information, and that the resulting metabolic patterns have utility as surrogate markers for detection and classification of cancer. Degradation occurs during clotting. The use of exogenous synthetic peptides, identical to previously observed founder peptides, can be used to monitor cancer-specific proteolytic degradation in plasma or serum that contains proteases. Conditions in terms of time, temperature and added amounts of substrates can hereby be readily controlled. Coupled to a MALDI-based read-out, such analyses are blood “protease assays” to monitor the tumor-dependent activities inferred from prior studies. Simultaneous addition of non-degradable, exogenous reference peptides also enables relative quantitation of all rungs in the ladders.
The degradation conditions and times were studied for C3f and FPA in serum and plasma as described above. […] 2 picomoles [^13C-Leu]-labeled C3f was incubated for 30 min at RT with […] aliquots of serum from 20 different breast cancer patients and 20 control samples. […]

FPA: synthetic fibrinopeptide A, N-terminally cleaved from fibrinogen by thrombin (ADSGEGDFLAEGGGVR; Fibrinopeptide A; UniProt P02671 20-35, looked up)
exoproteolytic degradation in plasma (in words) [1]: followed a similar time course
degradation in control serum and plasma (in words) [2]: readily degraded
degradation time [2]: up to 4 hours

FPB: fibrinopeptide B, added to plasma like synthetic FPA (QGVNDNEEGFFSAR; ends and bridges not checked; UniProt P02675 31-44, looked up)
exoproteolytic degradation in plasma (in words) [1]: completely degraded in just a few minutes
